The record followed here is PMC10629557.

In one experiment the target is Mcm4 (UniProt P30665). Description: CoSMoS: labelled Mcm2-7 arrival at ORC-Cdc6-bound DNA. As to conditions: reference: wild-type ORC, no CDK.
Experiment [1] concerns the target origin recognition complex (ORC), wild type, unphosphorylated (S. cerevisiae) (UniProt P54784). Description: colocalization single-molecule spectroscopy (CoSMoS); surface-tethered ARS1 DNA^AF488; 2.5 nM ORC, 10 nM Cdc6, 2.5 nM labeled Mcm2-7-Cdt1, ATP; time to the first Mcm2-7 association with each DNA, taken by the paper as OCCM formation; apparent first-order association rate, background binding at non-DNA sites fitted. To be noted: remark: other sources report otherwise.

Experiment [2] has as its target phosphorylated origin recognition complex (ORC treated with Clb5-Cdk1 and ATP) (S. cerevisiae) (UniProt P54784). The description is as above. As to conditions: remark: other sources report otherwise.
Experiment [3] concerns the target ORC^6C-DY549, wild type, without CDK treatment (S. cerevisiae) (UniProt P54784). Description: FRET or BRET; single-molecule FRET on surface-tethered ARS1 DNA between ORC^6C-DY549 (donor on Orc6 C-terminus) and Mcm2-7^3N-DY650 (acceptor on Mcm3 N terminus), with Cdc6 and Cdt1; MO complex (ORC on the N-terminal face of Mcm2-7) scored if E_FRET > 0.5 for two consecutive frames; low E_FRET in the OCCM. In general terms: In BRET a luciferase serves as donor, and the signal depends on an acceptor being close.

As for “Orc6 (from UniProt P38826) wild-type ORC treated with Clb5-Cdk1 and ATP”, the “other: apparent association rate ka” value with Mcm4 is “weaker; reference 0.0047 ± 0.0003”.

In the case of “Cdt1-Mcm2-7^4SNAP-JF646 (Mcm2-7-Cdt1 complex, Mcm2-7 fluorescently labeled at the N-terminus of Mcm4), P29469 1-868; P24279 1-971; P30665 1-933; P29496 1-775; P53091 1-1017; P38132 1-845; P47112 1-604”, the apparent first-order association rate ka of first Mcm2-7-Cdt1 recruitment (OCCM formation) in experiment [1] amounted to 0.0047 s⁻¹; in experiment [2], 0.002 s⁻¹.

“Mcm2-7^3N-DY650 (Mcm2-7 complex with an acceptor fluorophore at the N terminus of Mcm3) (from UniProt P29469 1-868; P24279 1-971; P30665 1-933; P29496 1-775; P53091 1-1017; P38132 1-845)” yielded a percent of first Mcm2-7 landings with the high-E FRET state (MO complex formation) in experiment [3] of 21%.
